Reference: patent US20200171163A1 (Daiichi Sankyo, published 2020)
Where a chain is given by its changes, count along the chain named.

T1: human CDH6 (full-length, on cells) (human, UniProt P55285 54-790)
T1 construct: also called hCDH6; full-length hCDH6
T1 sequence: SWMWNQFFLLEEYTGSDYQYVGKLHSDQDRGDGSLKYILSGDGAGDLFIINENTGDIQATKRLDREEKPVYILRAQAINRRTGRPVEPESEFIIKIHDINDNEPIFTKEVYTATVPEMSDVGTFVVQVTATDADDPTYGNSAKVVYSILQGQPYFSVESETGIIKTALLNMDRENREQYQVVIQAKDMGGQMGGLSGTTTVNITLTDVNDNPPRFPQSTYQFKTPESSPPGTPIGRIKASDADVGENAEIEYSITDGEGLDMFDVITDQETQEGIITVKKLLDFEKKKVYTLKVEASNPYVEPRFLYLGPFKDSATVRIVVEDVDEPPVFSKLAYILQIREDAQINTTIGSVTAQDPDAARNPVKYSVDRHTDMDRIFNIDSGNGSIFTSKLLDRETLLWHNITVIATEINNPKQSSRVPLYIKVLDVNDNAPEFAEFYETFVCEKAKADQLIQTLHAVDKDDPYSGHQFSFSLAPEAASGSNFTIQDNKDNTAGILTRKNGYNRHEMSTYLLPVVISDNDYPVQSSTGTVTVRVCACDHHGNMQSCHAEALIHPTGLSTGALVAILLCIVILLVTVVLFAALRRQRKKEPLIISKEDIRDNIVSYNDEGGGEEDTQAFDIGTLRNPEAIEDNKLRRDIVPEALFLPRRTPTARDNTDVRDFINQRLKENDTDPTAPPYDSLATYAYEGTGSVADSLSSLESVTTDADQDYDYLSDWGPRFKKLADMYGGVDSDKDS

T2: cynomolgus monkey CDH6 (on cells) (cynomolgus monkey, UniProt P55285 54-790 (human entry))
T2 construct: Expressed from pcDNA3.1-cynoCDH6; also called cynoCDH6
T2 sequence: T1 sequence with Y300H, H457R, A707G

B1: rG055 antibody (antibody, V domains shown)
VH: EVQLQESGPGLVRPSQSLSLSCSVTDYSITSNYWGWIRRFPGNKMEWMGYITYSGYTSYNPSLQSRISITRDTSKNQFFLQLNSVTAEDTATYYCARSINHGGYSYVVDAWGPGASVTVSS
VL: DVQMTHSPSYLAASPGESVSISCKTSKNISNYLVWYQQKPGEAYKLLIYSGSTLQSGTPSRFSGSGSGTDFTLTIRSLEPEDFGLYFCQQYYEKPFTFGSGTKLEIKR
notes: Rat monoclonal purified from hybridoma; also called rat anti-CDH6 monoclonal antibody clone rG055
B2: rG061 antibody (antibody, V domains shown)
VH: EVQLQESGPGLVKPSQSLSLTCSVTGYSITTYYWGWIRKFPGNKMEWMGYISYSGRTSYNPSLKSRMSITRDASKNQFFLQLNSVTTDDTATYYCARSPINHGGYWYFDFWGPGTMVTVSS
VL: B1 VL with H6Q, T25A, S26T, N28S, V34A, L46V, F87S, F96L
notes: Rat monoclonal purified from hybridoma; also called rat anti-CDH6 monoclonal antibody clone rG061
B3: rG056 antibody (antibody, V domains shown)
VH: EVQLQESGPGLVKPSQSLSLTCSVTDYSITTYFWGWIRKFPGNKMEWMGYMSYRGGTSYNPSLKSRISITRDTSKNQFFLQLNSVTTEDTATYYCARCPNYGGHSLVFDYWGQGVMVTVSS
VL: DVQMTQSPSSLAASPGESVSISCRATKSIGIYLAWYQQKPGKTFKLLIYSGSTLQSGTPSRFSGSGSGTDFTLTIRSLEPEDFGLYFCQQFYENPFTFGSGTKLEIRR
notes: Rat monoclonal purified from hybridoma; also called rat anti-CDH6 monoclonal antibody clone rG056
B4: rG019 antibody (antibody, V domains shown)
VH: QVQLQQSGAELVKPGSSVKISCKASGYTFTRNFMHWIKQQPGNGLEWIGWIYCGDGETEYNQKFNGKATLTADRSSSTAYMELSRLTSEDSAVYFCARGVYGGFAGGYFDFWGQGVMVTVSS
VL: DIQMTQSPSLLSASVGDRVTLNCKASQNIYKNLAWYQQKLGEGPKLLIYDANTLQTGIPSRFSGSGSGSDFTLTISSLQPEDVATYFCQQYYSGWAFGGVTNLELKRA
notes: Rat monoclonal purified from hybridoma; also called rat anti-CDH6 monoclonal antibody clone rG019

What follows are binders tested against T1, human CDH6 (full-length, on cells) (assay: flow cytometry; hCDH6-transfected 293T cells (open) vs untransfected control cells (shaded); antibody 10 ng/mL; anti-rat IgG-FITC).
Procedure: The human CDH6-binding activity of the rat anti-CDH6 antibody produced in Example 1)-7 was evaluated by flow cytometry. […] The cells were cultured overnight under conditions of 37° C. and 5% CO₂, and thereafter, a cell suspension was prepared. […] Thereafter, the cells were suspended by the addition of each of the 4 rat anti-CDH6 monoclonal antibodies (clone Nos: rG019, rG055, rG056 and rG061), which had been prepared in Example 1)-7, or rat IgG control (R&D Systems, Inc.) (final concentration: 10 ng/mL). The cells were left standing at 4° C. for 1 hour. The cells were washed twice with PBS supplemented with 5% FBS, and then suspended by the addition of Anti-Rat IgG (whole molecule)-FITC antibody produced in rabbit (Sigma-Aldrich Co. LLC) that had been 50-fold diluted with PBS supplemented with 5% FBS. The cells were left standing at 4° C. for 1 hour. The cells were washed twice with PBS supplemented with 5% FBS, followed by detection using a flow cytometer (FC500; Beckman Coulter, Inc.). The data was analyzed using FlowJo (Tree Star, Inc.). In the histogram of FIG. 1, the abscissa depicts FITC fluorescence intensity indicating the amount of the antibody bound, and the ordinate depicts a cell count. […] The rat IgG control binds to neither of the cells.

Row | binding result | Binder
1 | binds | B1
2 | binds | B2
3 | binds | B3
4 | binds | B4

These binders were tested against T2, cynomolgus monkey CDH6 (on cells) (assay: Cell-ELISA and flow cytometry screening of hybridoma supernatants on transfected cells).
Procedure: A coloring reaction was carried out with occasional stirring. Thereafter, 1 M HCl was added to the plate (100 μL/well) to terminate the coloring reaction, followed by measurement of the absorbance at 490 nm using a plate reader (ENVISION: PerkinElmer, Inc.).
The binding specificity to cynomolgus monkey CDH6 of an antibody produced from the human CDH6- and cynomolgus monkey CDH6-binding antibody-producing hybridomas that had been selected by Cell-ELISA in Example 1)-4 was further confirmed by flow cytometry. […] Thereafter, the cells were suspended by the addition of the culture supernatant from each hybridoma. The cells were left standing at 4° C. for 1 hour. The cells were washed twice with PBS supplemented with 5% FBS, and thereafter, the cells were suspended by the addition of Anti-Rat IgG FITC conjugate (Sigma-Aldrich Co. LLC) that had been 500-fold diluted with PBS supplemented with 5% FBS. The cells were left standing at 4° C. for 1 hour. The cells were washed twice with PBS supplemented with 5% FBS, and then re-suspended in PBS supplemented with 5% FBS and 2 μg/ml 7-aminoactinomycin D (Molecular Probes, Inc.), followed by detection using a flow cytometer (FC500; Beckman Coulter, Inc.). The data was analyzed using FlowJo (Tree Star, Inc.). After dead cells were removed from analysis by gating out 7-aminoactinomycin D-positive cells, a histogram of the FITC fluorescence intensity of live cells was generated.

Row | binding result | Binder
5 | binds | B1
6 | binds | B2
7 | binds | B3
8 | binds | B4
